The results in this text go back to PMC5663709 (Scientific Reports, 2017).

Assay [1] concerns the target recombinant hemagglutinin (HA) trimer of H1N1 A/California/07/2009, ectodomain (Influenza A virus A/California/07/2009 …, UniProt C3W5X2). The assay is described as follows: ELISA. To be noted: both partners purified.
The target of assay [2] is purified monomeric HA of H1N1 CA/09 (thrombin-digested ectodomain) (Influenza A virus A/California/07/2009 …, UniProt C3W5X2). As to the kind of experiment: crystal structure. To be noted: both partners purified.

B1: S40 IgG (antibody, V domains shown)
VH: EVQLVESGGGLVQPGGSLRLSCAASGFTIGDFGIHWVRQAPGKGLEWVAGIWPFGGYTYYADSVKGRFTISADTSKNTAYLQMNSLRAEDTAVYYCARFVNWDGDYMDYWGQGTLVTVSS
VL: DIQMTQSPSSLSASVGDRVTITCRASQDVGFYVAWYQQKPGKAPKLLISWSSYLYSGVPSRFSGSGSGTDFTLTISSLQPEDFATYYCQQYYNYPLTFGQGTKVEIK
notes: copies: 2 + 2
Consider B1, for which, in assay [1], the binding result is “binds”.

B2: S40 Fab (Fab, V domains shown)
VH: EVQLVESGGGLVQPGGSLRLSCAASGFTIGDFGIHWVRQAPGKGLEWVAGIWPFGGYTYYADSVKGRFTISADTSKNTAYLQMNSLRAEDTAVYYCARFVNWDGDYMDYWGQGTLVTVSS
VL: DIQMTQSPSSLSASVGDRVTITCRASQDVGFYVAWYQQKPGKAPKLLISWSSYLYSGVPSRFSGSGSGTDFTLTISSLQPEDFATYYCQQYYNYPLTFGQGTKVEIK
For the molecule B2, the binding result in assay [2] is listed as “binds”.
